Experimental data as given in publication PMC7063977, “Improving the Thermostability of Rhizopus chinensis Lipase Through Site-Directed Mutagenesis Based on B-Factor Analysis” (Frontiers in Microbiology, 2020).

B1: Lipr27RCL (Rhizopus microsporus var. chinensis) (protein)
chain: DTETVGGMTLDLPENPPPIPATSTAPSSDSGEVVTATAAQIKELTNYAGVAATAYCRSVVPGTKWDCKQCLKYVPDGKLIKTFTSLLTDTNGFILRSDAQKTIYVTFRGTNSFRSAITDMVFTFTDYSPVKGAKVHAGFLSSYNQVVKDYFPVVQDQLTAYPDYKVIVTGHSLGGAQALLAGMDLYQREKRLSPKNLSIYTVGCPRVGNNAFAYYVDSTGIPFHRTVHKRDIVPHVPPQAFGYLHPGVESWIKEDPADVQICTSNIETKQCSNSIVPFTSIADHLTYFGINEGSCL

Assays:
[1] = tested on: CCCCCCCCCCCCCCCC(=O)Oc1ccc([N+](=O)[O-])cc1; test: p-nitrophenol release, Lineweaver-Burk; format: biochemical, Rhizopus microsporus; conditions: Tris-HCl pH 9, 37 °C, substrate 4-PNN [sic], 4-NPP in materials, apparent Km
Text: (§1) p-nitrophenol release, Lineweaver-Burk on Lipr27RCL

[2] = substrate: CCCCCCCCCCCCCCCC(=O)Oc1ccc([N+](=O)[O-])cc1; test: p-nitrophenol release, Lineweaver-Burk; format: biochemical, Rhizopus microsporus; conditions: Tris-HCl pH 9, 37 °C, substrate 4-PNN [sic], 4-NPP in materials, apparent Km; remark: listed apart in the source
Text: as §1

| Molecule | Km [1] [µM] | Vmax [1] [µmol/min/mg] | kcat [1] [s⁻¹] | kcat/Km [1] [M⁻¹ s⁻¹] | Km [2] [µM] | Vmax [2] [µmol/min/mg] | kcat [2] [s⁻¹] | kcat/Km [2] [M⁻¹ s⁻¹] |
| --- | --- | --- | --- | --- | --- | --- | --- | --- |
| Lipr27RCL (Rhizopus microsporus var. chinensis; D159T) | 380 ± 50 | 709 | 187 ± 16.3 | 491000 |  |  |  |  |
| Lipr27RCL (Rhizopus microsporus var. chinensis; K157N) | 290 ± 90 | 588 | 185 ± 18.5 | 637000 |  |  |  |  |
| Lipr27RCL (Rhizopus microsporus var. chinensis; K161T) | 290 ± 60 | 714 | 188 ± 13.7 | 648000 |  |  |  |  |
| Lipr27RCL (Rhizopus microsporus var. chinensis; W158I) | 450 ± 40 | 500 | 132 ± 19.4 | 292000 |  |  |  |  |
| B1 |  |  |  |  | 360 ± 60 | 714 | 188 ± 18.2 | 522000 |
